In patent US20260116943A1, “PROCESSES FOR SYNTHESIZING GLUCAGON-LIKE-PEPTIDE 2 (GLP-2) ANALOGUES” (Zealand Pharma A/S, priority 2021, published 2026):
Like-named read-outs stand apart in the source and are kept apart here.

Experiments:
[1] = cited from earlier work
[2] = precipitation of ZP1848 in solution with phosphate and NaCl, same conditions as on the column under RPC1; type: physicochemical
Description: Additionally, ZP1848 precipitates at neutral pH in solutions containing NaCl, phosphate, NaOH and high ionic strength.
Below in Table 4.1 various formulations of ZP1848 were prepared in 100 mM NaCl and 45 mM phosphate (the buffers are described in Example 1.12) at different pH and/or concentrations in order to reflect the same conditions in solution as present in the column under RPC1.
Additionally, it was shown that ZP1848 precipitates even at low concentrations at pH 7.5 (0.2 and 0.5 mg/mL).

CC[C@H](C)[C@H](NC(=O)[C@H](Cc1ccccc1)NC(=O)[C@H](CC(=O)O)NC(=O)[C@H](CCCNC(=N)N)NC(=O)[C@H](C)NC(=O)[C@H](C)NC(=O)[C@H](CC(C)C)NC(=O)[C@H](CC(N)=O)NC(=O)[C@H](CC(=O)O)NC(=O)[C@H](CC(C)C)NC(=O)[C@@H](NC(=O)[C@@H](NC(=O)[C@H](CC(N)=O)NC(=O)[C@H](CCSC)NC(=O)[C@H](CCC(=O)O)NC(=O)[C@H](CC(=O)O)NC(=O)[C@H](CO)NC(=O)[C@H](Cc1ccccc1)NC(=O)[C@H](CO)NC(=O)CNC(=O)[C@H](CC(=O)O)NC(=O)CNC(=O)[C@@H](N)Cc1c[nH]cn1)[C@@H](C)O)[C@@H](C)CC)C(=O)N[C@@H](CC(N)=O)C(=O)N[C@@H](Cc1c[nH]c2ccccc12)C(=O)N[C@@H](CC(C)C)C(=O)N[C@H](C(=O)N[C@@H](CCC(N)=O)C(=O)N[C@H](C(=O)N[C@@H](CCCCN)C(=O)N[C@H](C(=O)N[C@H](C(=O)N[C@@H](CC(=O)O)C(=O)O)[C@@H](C)O)[C@@H](C)CC)[C@@H](C)O)[C@@H](C)CC [teduglutide, [hGly2] GLP-2]
half-life ([1]; Gly substitution at position 2, compared with native GLP-2): about two

GLP-2 [3-33]: truncated GLP-2 [3-33] (DGSFSDEMNTILDNLAARDFINWLIQTKITD; Glucagon-like peptide 2; UniProt P01275 148-178, looked up, fragment)
half-life ([1]; in humans): ~27 min

H-HGEGTFSSELATILDALAARDFIAWLIATKITDKKKKKK-NH2 [ZP1848]
precipitation in solution ([2]; neutral pH, solutions containing NaCl, phosphate, NaOH and high ionic strength): precipitates
precipitation at low concentrations ([2]; pH 7.5, 0.2 and 0.5 mg/mL): precipitates
precipitation in peptide product solution ([2]; phosphate buffer/phosphoric acid, neutral pH): precipitates
time of precipitation after sample preparation ([2]; same conditions in solution as on the column during RPC1): within minutes

Hy-His-Ala-Asp-Gly-Ser-Phe-Ser-Asp-Glu-Met-Asn-Thr-Ile-Leu-Asp-Asn-Leu-Ala-Ala-Arg-Asp-Phe-Ile-Asn-Trp-Leu-Ile-Gln-Thr-Lys-Ile-Thr-Asp-OH [GLP-2 [1-33]]
half-life ([1]; in humans): around 7 minutes
